Data published in article PMC7078472.

B1: unnamed (parent)
chain 1: VHQRIASWQNLGAVYCSTVVPSDDVTVVYQNGLPVISVRLPSRRERCQFTLKPISDSVGVFLRQLQEEDRGIDRVAIYSPDGVRVAASTGIDLLLLDDFKLVINDLTYHVRPPKRDLLSHENAATLNDVKTLVQQLYTTLCIEQHQLNKERELIERLEDLKEQLAPLEKVRIEISRKAEKRTTLVLWGGLAYMATQFGILARLTWWEYSWDIMEPVTYFITYGSAMAMYAYFVMTRQEYVYPEARDRQYLLFFHKGAKKSRFDLEKYNQLKDAIAQAEMDLKRLRDPLQVHLPLRQIGEKD
chain 2: DIDTAAKFIGAGAATVGVAGSGAGIGTVFGSLIIGYARNPSLKQQLFSYAILGFALSEAMGLFCLMVAFLILFAM

Variants of: B1
Experiment: MYTH (membrane yeast two-hybrid) quantitative β-Gal activity assay
Settings: with partner chain of the complex shown; yeast strain NMY51; n = 3; 6 colonies for each independent experiment; read off a plot

Row | Variant | response [units]
1 | chain 1 Q196A I199P L200P W205A | 26
